Tests used:
[1] = molecular target: egSepF-CTD G163K (E. gallinarum); experiment: AUC
[2] = molecular target: saSepF-CTD G145K (S. aureus); experiment: AUC

Row | Substance | stoichiometry N [1] | stoichiometry N [2]
1 | egSepF-CTD G163K (domain or fragment) | 2 | 
2 | saSepF-CTD G145K (domain or fragment) |  | 2

Reference: article doi:10.1101/2024.07.18.604210
